Data on 6 molecules can be found in patent US20200299384A1.

To fix the notation:
B1: WBP3311_2.400.5 (antibody, V domains shown)
VH: QVQLQQSGPELVNPGASVKISCKASGYSFTNYYLHWVKQRPGQGLEWIGWIFPESDNTKYNEKLKGKATLTADTSSDTAYMHLSSLTFEDSAVYFCARDSVGNYFFDFWGQGTTLTVSS
VL: DIVMSQSPSSLAVSAGEKVTMRCKSSQSLVNNRTRKNYLAWYQQKPGQPPKLLIYWASTRESGVPDRFTGSGSGTDFTLTISSVQAEDLAVYYCAQSFILRTFGGGTKLEIK
B2: WBP3311_2.482.5 (antibody, V domains shown)
VH: QVQLQQSGPELVKPGSSVKISCKPSGYTFTTYYIHWVKQRPGQGLEWIGWIFPGSDNIKYNENFKDKATLTADTSSSTAYMQLSSLTSEDSAVYFCARDSVSRYYFDYWGQGTILTVSS
VL: DIVMSQSPSSLAVSAGEKVTMSCKSSQSLVNDRTRKNYLAWYQQKPGLSPKLLIYWASTRESGVPDRFTGSGSGTDFTLTISSVQAEDLAVYYCAQSFILRTFGGGTKLEIK
B3: WBP3311_2.306.4 (antibody, IgG2b, V domains shown)
VH: QVQLQQSGPELVKPGASVRISCKASGFAFTDYYIHWVKQRPGQGLEWIGWISPGNVNTKYNENFKGRATLTADLSSSTAYMQLSSLTSEDSAVYFCARDGYSLYYFDYWGQGTTLTVSS
VL: DIVMSQSPSSLTVSAGEKVTMSCKSSQSLLNSRTRKNYLAWYQQKPGQSPKLLIYWASTRQSGVPDRFTGSGSGTAFTLTISGVQAEDLAVYFCTQSHTLRTFGGGTKLEIK
B4: WBP3311_2.383.47 (antibody, V domains shown)
VH: QVQLQQSGPELVKPGASVRISCKTSGFTFTNYYIHWVIQRPGQGLEWIGWISPENGNTKYNENFQDKATLTADISSSTAYMHLSSLTSEDSAVYFCARDGYSLYYFDYWGQGTTLTVSS
VL: DIVMSQSPSSLTVSAGEKVTMSCKSSQSLLNSRTRKNYLAWYQQKPGQSPKLLIYWASIRVSGVPDRFTGSGSGTTFTLTISGVQAEDLAVYYCTQSHTLRTFGGGTKLEIK
B5: WBP331_2.488.33 (antibody, V domains shown)
VH: QVQLQQSGPELVKPGTSVKISCKASGFSFTNYYIHWVKQRPGQGPEWIGWIFPGTVNTKYNEKFKGKATLTADTSSNTAFMQLSSLTSADSAVYFCARDSVGIYYFDFWGLGTTLTVSS
VL: DIVMSQSPSSLAVSAGEKVTVSCKSSQSLLNNRTRKNYLAWYQQKPGQSPKLLIYWASTRESGVPDRFTGSGSGTDFTLTISSVQAEDLAVYYCTQSFILRTFGGGTKLEIK
B6: WBP3311_2.844.8 (antibody, V domains shown)
VH: QVQLQQSGPELVKPGASVRISCKASGFAFTDYYIHWVKQRPGQGLEWIGWISPGNVNTKYNENFKGRATLTADLSSSTAYMQLSSLTSEDSAVYFCARDGYSLYYFDYWGQGTTLTVSS
VL: DIVMSQSPSSLTVSAGEKVTMSCKSSQSLLNSRTRKNYLAWYQQKPGQSPKLLIYWASTRESGVPDRFTGSGSGTAFTLTISGVQAEDLAVYFCTQSHTLRTFGGGTKLEIK

The target of this test is mouse CD3epsilon protein (mouse) (UniProt P22646). Description: ELISA, antigen coated on plate.
mouse CD3epsilon protein (mouse), sequence (P22646 22-108 limits assumed): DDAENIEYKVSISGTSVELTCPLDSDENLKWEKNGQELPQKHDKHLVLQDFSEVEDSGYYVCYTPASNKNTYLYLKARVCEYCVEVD
Regarding B1, the ELISA A450 came to 0.709 A450.
In turn, B2 gave an ELISA A450 of 0.61 A450.
In the case of B3 it was 0.711 A450; in that of B4, 0.666 A450.
As for B5, the ELISA A450 turned out to be 0.607 A450.
In the case of B6 it was 0.6 A450.
